Numbered stars: 1 amine (or outer) side, 2 acyl side, 3 side chain; on linkers, the order of the positions; unused ones are H or OH. Bridge positions count the residues as written; N and C are the ends. Square brackets hold non-standard residues; d marks the D form. Ends that are not written are not given here. TATA = O=C(CC[*:1])N1CN(C(=O)CC[*:2])CN(C(=O)CC[*:3])C1; Phe(3-Cl) = N[C@@H](Cc1cccc(Cl)c1)C(=O)O; Phe(2-Cl) = N[C@@H](Cc1ccccc1Cl)C(=O)O; Phe(3-F) = N[C@@H](Cc1cccc(F)c1)C(=O)O; Phe(3-Me) = Cc1cccc(C[C@H](N)C(=O)O)c1; Phe(4-Me) = Cc1ccc(C[C@H](N)C(=O)O)cc1; Phe(2-F) = N[C@@H](Cc1ccccc1F)C(=O)O; Phe(2-Me) = Cc1ccccc1C[C@H](N)C(=O)O; tBuAla = CC(C)(C)C[C@H](N)C(=O)O; Agb = N=C(N)NCC[C@H](N)C(=O)O
B1: BCY17688 (peptide)
peptide: CNAVLCSWARANSFC
modifications: linker 1-6-15 via TATA
notes: bicyclic peptide without terminal additions

Each binder was assayed against T1, Biotinylated Human ACE2, His, Avitag protein (ACROBiosystems, AC2-H82E6) (human, UniProt Q9BYF1 18-740) (assay: SPR single cycle kinetics, ACE2 captured on CAP chip, peptide analyte; geometric mean).
T1 construct: also called biotinylated ACE2; ACE2 protein; not shown: His tag and Avitag
Method: Binding of bicyclic peptides of the invention to Biotinylated Human ACE2, His, Avitag™ protein (ACROBiosystems, AC2-H82E6) was assessed by a SCK analysis. Experiments were performed at 25° C. on a Biacore T200 (Cytiva) running Biacore T200 Control software V2.0.1 and Evaluation software V3.0 (Cytiva). HBS-EP+ (Cytiva) was used as running buffer as well as for ligand and analyte dilutions. Biotin CAPture reagent was loaded onto a Series S Sensor CAP Chip (Cytiva) followed by loading of the ACE2 protein at a flow rate of 2 μl/min. The surface was then allowed to stabilise.
SCK data was obtained using bicyclic peptides of the invention as analytes injected at a flow rate of 30 μl/min to minimise any potential mass transfer effects. […] The association phases were monitored for 100 seconds for each of the four injections of increasing concentrations of analyte and a single dissociation phase was measured for 400 seconds following the last injection of analyte. Regeneration of the sensor chip surface was conducted using the CAP Chip standard regeneration buffer (Cytiva).
The signal from the reference channel Fc1 (no ACE2 captured) was subtracted from that of Fc2, Fc3 and Fc4 to correct for bulk effect and differences in non-specific binding to a reference surface. The signal from each blank run (Fc2-ACE2 captured but no antigen) was subtracted to correct for differences in surface stability. The double referenced sensorgrams were fitted with the Langmuir (1:1) binding model (Equation 1a below) where the closeness of fit of the data to the model is evaluated using the Chi square value which describes the deviation between the experimental and fitted (observed and expected) curves (Equation 1b below).

T1 sequence (Q9BYF1 18-740 limits assumed): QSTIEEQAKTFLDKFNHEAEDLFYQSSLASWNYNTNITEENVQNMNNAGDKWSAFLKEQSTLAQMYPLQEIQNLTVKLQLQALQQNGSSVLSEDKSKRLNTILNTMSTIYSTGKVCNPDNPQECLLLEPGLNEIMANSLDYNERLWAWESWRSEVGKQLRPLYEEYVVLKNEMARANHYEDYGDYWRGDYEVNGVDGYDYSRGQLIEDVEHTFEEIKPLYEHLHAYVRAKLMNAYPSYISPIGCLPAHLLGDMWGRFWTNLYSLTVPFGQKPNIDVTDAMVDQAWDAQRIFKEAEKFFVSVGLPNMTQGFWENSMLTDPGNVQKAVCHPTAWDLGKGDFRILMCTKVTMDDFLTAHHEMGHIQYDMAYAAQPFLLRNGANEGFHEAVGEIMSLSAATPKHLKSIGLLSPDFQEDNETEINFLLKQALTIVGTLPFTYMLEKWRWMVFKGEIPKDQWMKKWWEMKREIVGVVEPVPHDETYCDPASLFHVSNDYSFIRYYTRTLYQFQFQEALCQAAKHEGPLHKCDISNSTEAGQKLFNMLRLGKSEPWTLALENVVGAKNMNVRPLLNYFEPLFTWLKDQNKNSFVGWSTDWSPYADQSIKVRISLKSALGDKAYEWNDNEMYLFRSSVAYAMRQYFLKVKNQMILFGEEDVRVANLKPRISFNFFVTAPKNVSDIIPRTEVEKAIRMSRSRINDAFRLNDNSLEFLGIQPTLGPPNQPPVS

Point of comparison: ACNAVLCSWARANS[Phe(3-Me)]CA (linker 2-7-16 via TATA, bicyclic peptide, TATA scaffold) [BCY17336], Kd 8.3 nM. Against it:
- ACESLYKCWRGRCA (linker 2-8-13 via TATA, bicyclic peptide, TATA scaffold) [BCY17154] — 13-fold higher, 104 nM
- ACNAVLCSWARANS[Phe(3-F)]CA (linker 2-7-16 via TATA, bicyclic peptide, TATA scaffold) [BCY17342] — 2.5-fold lower, 3.3 nM
- ACNKVLCSWASRNSMCA (linker 2-7-16 via TATA, bicyclic peptide, TATA scaffold) [BCY17157] — within 1.5-fold, 11.8 nM
- ACNTVLCAWATQNSLCA (linker 2-7-16 via TATA, bicyclic peptide, TATA scaffold) [BCY17164] — 1.8-fold higher, 14.8 nM
- ACNAVLCSWARANS[Phe(3-Cl)]CA (linker 2-7-16 via TATA, bicyclic peptide, TATA scaffold) [BCY17339] — 1.8-fold lower, 4.7 nM
- ACPSQYKCWRGKCA (linker 2-8-13 via TATA, bicyclic peptide, TATA scaffold) [BCY15427] — 18-fold higher, 150 nM
- ACNAVLCSWARANS[Phe(4-Me)]CA (linker 2-7-16 via TATA, bicyclic peptide, TATA scaffold) [BCY17337] — 1.7-fold lower, 5 nM
- ACNAVLCSWA[Agb]ANSFCA (linker 2-7-16 via TATA, bicyclic peptide, TATA scaffold) [BCY17689] — 1.8-fold lower, 4.7 nM
- ACNAV[tBuAla]CSWARANSFCA (linker 2-7-16 via TATA, bicyclic peptide, TATA scaffold) [BCY17333] — 1.7-fold lower, 5 nM
- ACNAVLCSWARANS[Phe(2-Me)]CA (linker 2-7-16 via TATA, bicyclic peptide, TATA scaffold) [BCY17335] — 3.3-fold lower, 2.5 nM
- ACNAVLCSWARANSYCA (linker 2-7-16 via TATA, bicyclic peptide, TATA scaffold) [BCY17690] — 1.7-fold lower, 4.8 nM
- ACNTLYKCWRGKCA (linker 2-8-13 via TATA, bicyclic peptide, TATA scaffold) [BCY17155] — 13-fold higher, 107 nM
- ACNAVLCSWARANS[Phe(2-F)]CA (linker 2-7-16 via TATA, bicyclic peptide, TATA scaffold) [BCY17341] — 2.7-fold lower, 3.1 nM
- ACAEIYKCWRGRCA (linker 2-8-13 via TATA, bicyclic peptide, TATA scaffold) [BCY17152] — 14-fold higher, 120 nM
- Ac-CNAVLCSWARANSFC (linker 1-6-15 via TATA, bicyclic peptide, TATA scaffold) [BCY17663] — 1.6-fold lower, 5.3 nM
- ACTELYKCWRGRCA (linker 2-8-13 via TATA, bicyclic peptide, TATA scaffold) [BCY17156] — 18-fold higher, 151 nM
- ACNAVLCSWARANS[Phe(2-Cl)]CA (linker 2-7-16 via TATA, bicyclic peptide, TATA scaffold) [BCY17338] — 2.6-fold lower, 3.2 nM
- B1 — 3.1-fold lower, 2.7 nM
- ACSPVLCAWATRNSLCA (linker 2-7-16 via TATA, bicyclic peptide, TATA scaffold) [BCY17165] — 1.5-fold higher, 12.5 nM
- ACDTLYKCWRGRCA (linker 2-8-13 via TATA, bicyclic peptide, TATA scaffold) [BCY17153] — 11-fold higher, 91.7 nM
- ACNTVLCAWAMNNSMCA (linker 2-7-16 via TATA, bicyclic peptide, TATA scaffold) [BCY17163] — 4.4-fold higher, 36.8 nM
- ACNRVLCAWATANSMCA (linker 2-7-16 via TATA, bicyclic peptide, TATA scaffold) [BCY17159] — 1.8-fold lower, 4.7 nM

Source: patent US20230183291A1 (Bicycle, published 2023)
